Results taken from the supplement of paper PMC10126150.
± gives the standard deviation of the averaged measurements.

Each sequence was assayed on ATP (assay: switch fluorescence ratio, 500 uM ATP over buffer (Cy3 cluster intensity, sum of 5 cycles each) (fold (ratio)); higher = stronger signal-on switching upon ATP binding; sequences stand for … in TCGTCGGCAGCGTCAGATGTGTATAAGAGACAGTTTTTTTTTTTTTTTTTTTTTTTTT…TC). Details: aptamer strand: ATP DNA aptamer (quencher-CACCTGGGGGAGTATTGCGGAGGAAGG + anchor), 100 nM annealed; ATP concentration: 500 uM.
In short: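 For every switch-domain sequence, the fluorescence ratio is the mean of per-cluster values, each being summed target-cycle Cy3 intensity over summed buffer-cycle Cy3 intensity. Clusters outside 100-1000 RFU were excluded. On a modified Illumina MiSeq flow-cell, the Cy3-labelled switching-strand clusters were annealed to 100 nM quencher-labelled ATP aptamer, imaged in selection buffer and then after 15 min with 500 uM ATP at 22 °C. Five such cycles were run, with NaOH stripping and re-annealing between them.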
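Further: ATP exposure 15 min at 22 °C before imaging.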

| Sequence | switch fluorescence ratio |
| --- | --- |
| TTGCTGGAAT | 1.06 ± 0.095 |
| AATAAGTTTT | 0.969 ± 0.037 |
| ATCAAGGGGT | 1.01 ± 0.019 |
| GGTGTGTCGT | 1.02 ± 0.017 |
| CGGGCAGTTG | 0.9992 ± 0.0071 |
| TTTGCTTTTG | 0.988 ± 0.021 |
| CGATTAGGTG | 1.193 ± 0.0052 |
| ACGGGATGTG | 0.978 ± 0.016 |
| AGTTTCGGGT | 0.9636 ± 0.0082 |
| TGTTAGTGGC | 1 ± 0.04 |
| GAGTGGTAGG | 1.01 ± 0.021 |
| TACCTATTGG | 0.9974 ± 0.0039 |
| TGTTTTTCTT | 1.01 ± 0.033 |
| GGGAATGGTC | 1.01 ± 0.043 |
| TAGTACGGAT | 1.01 ± 0.007 |
| TTTGTGTGTC | 1 ± 0.025 |
| TCGGCGAATG | 1.02 ± 0.024 |
| TTTTCAATTG | 1.01 ± 0.027 |
| AGTGCAAGTG | 0.972 ± 0.011 |
| GGGAGTTTGG | 0.975 ± 0.027 |
| ATTTAGGACT | 0.978 ± 0.027 |
| TACGTGTGGG | 1.02 ± 0.038 |
| CGTGATGGTT | 0.983 ± 0.014 |

| Sequence | switch fluorescence ratio |
| --- | --- |
| TTTTCTACCC | 1.03 ± 0.059 |
| TGGTTTGGCG | 1.02 ± 0.18 |
| TGGCAGGGGT | 1.56 ± 0.63 |
| GCTAGTAAGT | 0.9819 ± 0.0063 |
| AGGGGTGAAA | 0.987 ± 0.021 |
| GCGCAACAGG | 1.04 ± 0.015 |
| GGAAATTGTA | 0.986 ± 0.0059 |
| TAGGTAAATC | 1.01 ± 0.024 |
| AATTTTTGTG | 0.988 ± 0.022 |
| TGTGTATGAG | 0.986 ± 0.036 |
| GGGGACCTGG | 0.9999 ± 0.0046 |
| TAGCCTTTGG | 0.978 ± 0.034 |
| TTTTGGCTTG | 0.9884 ± 0.0012 |
| ACGAGATGAC | 1.05 ± 0.067 |
| TTTATAATAG | 0.991 ± 0.025 |
| ATAGATGCTT | 1.002 ± 0.003 |
| GGGGGGTGAG | 0.974 ± 0.037 |
| CCGAGTTGTG | 1.05 ± 0.041 |
| AAGAGGGTTC | 1.02 ± 0.081 |
| TTTTCATAAC | 1 ± 0.051 |
| AATGGTGTGT | 1.01 ± 0.018 |
| ATGCAGTATT | 1.03 ± 0.025 |
| GTGCAAAATG | 1.0339 ± 0.00075 |

| Sequence | switch fluorescence ratio |
| --- | --- |
| GAGCAATGTG | 1.22 ± 0.3 |
| ATGAATTTGT | 1.01 ± 0.032 |
| AGGTGCTGTG | 1.01 ± 0.051 |
| TTCCGGGGTA | 1.02 ± 0.032 |
| ATGGGTGTCC | 1.004 ± 0.0056 |
| CAATATCCGA | 1 ± 0.026 |
| CCGCAGGGTA | 1.259 ± 0.0092 |
| TAAAAATACA | 1.1 ± 0.13 |
| TCATTGTGCT | 0.975 ± 0.015 |
| TATGTGAAGG | 0.995 ± 0.015 |
| ACGGGCACTT | 1.12 ± 0.041 |
| TAGGATATTT | 1 ± 0.02 |
| AGTCTCAGGC | 1 ± 0.032 |
| TCGTTAAATT | 0.988 ± 0.035 |
| GAGTTATTTT | 0.976 ± 0.017 |
| CGGTTATGGA | 0.999 ± 0.026 |
| GGGTGGTATT | 1.03 ± 0.013 |
| GTGATTGTTT | 1.009 ± 0.0091 |
| TGGTTTCGGT | 0.9903 ± 0.0017 |
| TGAGATCCCT | 1.03 ± 0.039 |
| TGGGGATGGG | 0.996 ± 0.029 |
| TTTCGGCCAG | 1.13 ± 0.17 |
| GGCTTGAAGC | 0.986 ± 0.018 |

| Sequence | switch fluorescence ratio |
| --- | --- |
| GCAGTTGGGT | 0.986 ± 0.028 |
| TTTTTTTTGT | 1 ± 0.035 |
| GCGGAAGATC | 1.03 ± 0.021 |
| CTTGATACAG | 1.037 ± 0.0026 |
| ATTGAAGATT | 0.989 ± 0.037 |
| TCGAACGTTG | 1.034 ± 0.0026 |
| CGGCAGTATG | 1.02 ± 0.011 |
| TTAAAATATT | 0.993 ± 0.023 |
| TGGGGTGCAT | 0.993 ± 0.051 |
| AGATAAATCA | 0.978 ± 0.033 |
| CTGGACTTAC | 1.34 ± 0.052 |
| CGTAACGGGA | 1.037 ± 0.0076 |
| CTCGCTTTTT | 1.2 ± 0.29 |
| GGTTGTTTCG | 0.969 ± 0.038 |
| TTCGCGTTTT | 1.02 ± 0.04 |
| CTCGCTCGTG | 1.03 ± 0.016 |
| GCTGATAACG | 1.01 ± 0.035 |
| TTATGAAGGT | 1.02 ± 0.06 |
| TATTTAGGAA | 0.9498 ± 0.0078 |
| GGTATGGATA | 1 ± 0.027 |
| ATGGTGGGAG | 0.992 ± 0.0061 |
| AGACAGGGG | 1.04 ± 0.017 |
| AGAGTCAGCA | 1.02 ± 0.021 |

| Sequence | switch fluorescence ratio |
| --- | --- |
| GGTGCATGGG | 1.01 ± 0.034 |
| CAAGAGGGTG | 1.11 ± 0.15 |
| ATGTTGGGAA | 0.978 ± 0.029 |
| ATATGAATAG | 1.01 ± 0.018 |
| CATTGGGGAG | 1.01 ± 0.026 |
| TGATTTGGAC | 1.01 ± 0.061 |
| TATACTGCAC | 1.54 ± 0.032 |
| TTTTTGTAGA | 1.01 ± 0.022 |
| TGAGTTCGTA | 1.02 ± 0.012 |
| GATTCACGTT | 1.052 ± 0.0043 |
| CTGGTTAGGA | 1 ± 0.066 |
| TTTCGGTCGG | 1.04 ± 0.046 |
| AGAATTGCGG | 0.98 ± 0.044 |
| GATAGGGCTT | 0.994 ± 0.056 |
| AGTTGTAAAG | 0.985 ± 0.018 |
| ACTAATATTG | 1.032 ± 0.0054 |
| TGGGTATACG | 1.01 ± 0.049 |
| GGACATGGAC | 0.9775 ± 0.0044 |
| CTGCCCGGCG | 1.03 ± 0.027 |
| GGGTCCGCGG | 1.04 ± 0.011 |
| ACTTTAGCGG | 0.99001 ± 0.0002 |
| TAGTGTTGGT | 0.975 ± 0.016 |
| TATTTTGGTT | 0.999 ± 0.015 |

| Sequence | switch fluorescence ratio |
| --- | --- |
| CGTCAGGTGT | 3.713 ± 0.012 |
| TCAGCGGGGA | 1.001 ± 0.0066 |
| GGGTATGTGT | 0.986 ± 0.015 |
| CTGAAAGGGA | 1.01 ± 0.02 |
| CGTACGGGCG | 0.956 ± 0.028 |
| TGTGAGAGGT | 0.995 ± 0.012 |
| GCTCGTTTTG | 0.981 ± 0.043 |
| GGGGGCTGGT | 1 ± 0.0022 |
| CGAGTGGGTG | 0.996 ± 0.018 |
| TTTGAGGAGG | 0.9876 ± 0.0046 |
| TTGTGAATAT | 1 ± 0.044 |
| TCAGGGGTTC | 0.9918 ± 0.0084 |
| AGAGGTTTGG | 0.9944 ± 0.0051 |
| TTGCTCTGGG | 0.974 ± 0.019 |
| GAGGGCACTG | 0.956 ± 0.023 |
| CAGGGAATGT | 0.9984 ± 0.0077 |
| TCGGTGCTGG | 0.977 ± 0.018 |
| TAGGAGGGGA | 1.01 ± 0.029 |
| ACGAGTTCGC | 1.04 ± 0.025 |
| TAAAGGTTCT | 1.02 ± 0.03 |
| TGCTTCCGAA | 1.52 ± 0.082 |
| AGGGTGGCGC | 1.02 ± 0.021 |
| ATGGGGTGTA | 1 ± 0.03 |

| Sequence | switch fluorescence ratio |
| --- | --- |
| TAGAGTAACA | 1 ± 0.035 |
| TTCATCCGTA | 1.39 ± 0.23 |
| CGTTGCTTAG | 0.988 ± 0.024 |
| TCGGATAGGG | 1.04 ± 0.071 |
| CAGAGGTATG | 1.01 ± 0.028 |
| CTCTACAGGG | 1.04 ± 0.042 |
| AGGCCAGGGG | 1.06 ± 0.1 |
| GAGAAAGGTG | 1.09 ± 0.022 |
| TTTTAACGGC | 0.971 ± 0.082 |
| CGGTTAACGG | 1 ± 0.025 |
| TTTCTTGGCG | 1 ± 0.03 |
| CGAAGTAGAG | 1.029 ± 0.0064 |
| CGGTCTGTT | 0.9878 ± 0.0066 |
| AGGTTACGAG | 1 ± 0.02 |
| CTCGGCCGGC | 0.982 ± 0.049 |
| TGGGGTCTGG | 0.976 ± 0.026 |
| GATCATAAAA | 1.02 ± 0.017 |
| TCTGGCAGAT | 1.01 ± 0.028 |
| GAGGGCAATG | 1.22 ± 0.067 |
